Results as given in patent publication US20220033520A1.

Experiments:
[1] = target: human FcRn (FCGRT and beta-2 microglobulin) expressed on MDCK II cells (human) (UniProt P55899); test: cell-based or functional assay
[2] = target: human FcRn complex (FCGRT and beta-2 microglobulin), recombinant, purified (human) (UniProt P55899); test: SPR, protein L capture, pH 6, kinetic
[3] = target: human FcRn complex (FCGRT and beta-2 microglobulin), recombinant, purified (human) (UniProt P55899); test: SPR, protein L capture, pH 7.4, steady state
[4] = target: human FcRn complex (FCGRT and beta-2 microglobulin), recombinant, purified (human) (UniProt P55899); test: SPR, anti-human Fab capture, pH 7.4, steady state
[5] = target: human FcRn complex (FCGRT and beta-2 microglobulin), recombinant, purified (human) (UniProt P55899); test: SPR, anti-human Fab capture, pH 6, steady state
[6] = target: cyno FcRn (cynomolgus monkey) (UniProt Q8SPV9); test: affinity for cyno FcRn at 25 C, pH 6.0
Chain of cyno FcRn (cynomolgus monkey) (Q8SPV9 24-297 limits assumed, chain 1 of 2): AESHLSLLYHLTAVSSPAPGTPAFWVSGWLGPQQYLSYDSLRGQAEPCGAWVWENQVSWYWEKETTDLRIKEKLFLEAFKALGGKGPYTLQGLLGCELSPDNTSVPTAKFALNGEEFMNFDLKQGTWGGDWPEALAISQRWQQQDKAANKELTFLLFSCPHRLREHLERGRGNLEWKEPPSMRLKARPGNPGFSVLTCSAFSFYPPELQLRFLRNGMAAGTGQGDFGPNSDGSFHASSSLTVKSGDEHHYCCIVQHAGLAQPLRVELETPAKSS
Chain of cyno FcRn (cynomolgus monkey) (Q8SPW0 21-119 limits assumed, chain 2 of 2, further chain): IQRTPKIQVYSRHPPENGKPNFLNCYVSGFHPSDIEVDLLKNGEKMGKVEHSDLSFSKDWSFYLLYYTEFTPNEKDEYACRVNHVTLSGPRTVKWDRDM

[7] = target: cyno FcRn (cynomolgus monkey) (UniProt Q8SPV9); test: affinity for cyno FcRn at 25 C, pH 7.4

Kd [4]	Kd [5]	Binder	further results
–	–	anti-BACE1 hIgG4 antibody, Fc modification T1-IgG4 (M252Y/T307Q/N434Y) (antibody, part only; not given: anti-BACE1 variable domains, not shown: another chain or arm of the molecule) Fc: PAPEFLGGPSVFLFPPKPKDTLYISRTPEVTCVVVDVSQEDPEVQFNWYVDGVEVHNAKTKPREEQFNSTYRVVSVLQVLHQDWLNGKEYKCKVSNKGLPSSIEKTISKAKGQPREPQVYTLPPSQEEMTKNQVSLTCLVKGFYPSDIAVEWESNGQPENNYKTTPPVLDSDGSFFLYSRLTVDKSRWQEGNVFSCSVMHEALHYHYTQKSLSLSLGK	Transcytosis Normalized to WT (normalized to WT) [1]: 80; Kd [2]: 10.5 nM; koff [2]: 0.00897 s⁻¹; kon [2]: 856000 M⁻¹ s⁻¹; Kd [3]: 328 nM
305 nM	7.04 nM	anti-BACE1 hIgG4 antibody, Fc modification T94 (M252Y/N286E/N434Y) (antibody, part only; not given: Anti-BACE1 variable domains, not shown: another chain or arm of the molecule) Fc: PAPEFLGGPSVFLFPPKPKDTLYISRTPEVTCVVVDVSQEDPEVQFNWYVDGVEVHEAKTKPREEQFNSTYRVVSVLTVLHQDWLNGKEYKCKVSNKGLPSSIEKTISKAKGQPREPQVYTLPPSQEEMTKNQVSLTCLVKGFYPSDIAVEWESNGQPENNYKTTPPVLDSDGSFFLYSRLTVDKSRWQEGNVFSCSVMHEALHYHYTQKSLSLSLGK	–
202 nM	5.9 nM	anti-BACE1 hIgG4 antibody, Fc modification Q95 (M252Y/T307Q/Q311A/N434Y) (antibody, part only; not given: Anti-BACE1 variable domains, not shown: another chain or arm of the molecule) Fc: PAPEFLGGPSVFLFPPKPKDTLYISRTPEVTCVVVDVSQEDPEVQFNWYVDGVEVHNAKTKPREEQFNSTYRVVSVLQVLHADWLNGKEYKCKVSNKGLPSSIEKTISKAKGQPREPQVYTLPPSQEEMTKNQVSLTCLVKGFYPSDIAVEWESNGQPENNYKTTPPVLDSDGSFFLYSRLTVDKSRWQEGNVFSCSVMHEALHYHYTQKSLSLSLGK	–
486 nM	9.2 nM	anti-Abeta hIgG4 antibody, Fc modification Q4 (M252Y/Q311I/M428L/N434Y) (antibody, part only; not given: Anti-Abeta variable domains, not shown: another chain or arm of the molecule) Fc: PAPEFLGGPSVFLFPPKPKDTLYISRTPEVTCVVVDVSQEDPEVQFNWYVDGVEVHNAKTKPREEQFNSTYRVVSVLTVLHIDWLNGKEYKCKVSNKGLPSSIEKTISKAKGQPREPQVYTLPPSQEEMTKNQVSLTCLVKGFYPSDIAVEWESNGQPENNYKTTPPVLDSDGSFFLYSRLTVDKSRWQEGNVFSCSVLHEALHYHYTQKSLSLSLGK	–
285 nM	8 nM	anti-Abeta hIgG4 antibody, Fc modification Q6 (M252Y/M428L/N434Y/Y436I) (antibody, part only; not given: anti-Abeta variable domains, not shown: another chain or arm of the molecule) Fc: PAPEFLGGPSVFLFPPKPKDTLYISRTPEVTCVVVDVSQEDPEVQFNWYVDGVEVHNAKTKPREEQFNSTYRVVSVLTVLHQDWLNGKEYKCKVSNKGLPSSIEKTISKAKGQPREPQVYTLPPSQEEMTKNQVSLTCLVKGFYPSDIAVEWESNGQPENNYKTTPPVLDSDGSFFLYSRLTVDKSRWQEGNVFSCSVLHEALHYHITQKSLSLSLGK	–
1020 nM	13.1 nM	anti-Abeta hIgG4 antibody, Fc modification D1 (M252Y/N434Y) (antibody, part only; not given: Anti-Abeta variable domains, not shown: another chain or arm of the molecule) Fc: PAPEFLGGPSVFLFPPKPKDTLYISRTPEVTCVVVDVSQEDPEVQFNWYVDGVEVHNAKTKPREEQFNSTYRVVSVLTVLHQDWLNGKEYKCKVSNKGLPSSIEKTISKAKGQPREPQVYTLPPSQEEMTKNQVSLTCLVKGFYPSDIAVEWESNGQPENNYKTTPPVLDSDGSFFLYSRLTVDKSRWQEGNVFSCSVMHEALHYHYTQKSLSLSLGK	Kd [6]: 11.5 nM; Kd [7]: 571 nM
263 nM	7.4 nM	anti-BACE1 hIgG4 antibody, Fc modification T3 (M252Y/Q311I/N434Y) (antibody, part only; not given: Anti-BACE1 variable domains, not shown: another chain or arm of the molecule) Fc: PAPEFLGGPSVFLFPPKPKDTLYISRTPEVTCVVVDVSQEDPEVQFNWYVDGVEVHNAKTKPREEQFNSTYRVVSVLTVLHIDWLNGKEYKCKVSNKGLPSSIEKTISKAKGQPREPQVYTLPPSQEEMTKNQVSLTCLVKGFYPSDIAVEWESNGQPENNYKTTPPVLDSDGSFFLYSRLTVDKSRWQEGNVFSCSVMHEALHYHYTQKSLSLSLGK	–
215 nM	6.3 nM	anti-BACE1 hIgG4 antibody, Fc modification Q6 (M252Y/M428L/N434Y/Y436I) (antibody, part only; not given: anti-BACE1 variable domains, not shown: another chain or arm of the molecule) Fc: PAPEFLGGPSVFLFPPKPKDTLYISRTPEVTCVVVDVSQEDPEVQFNWYVDGVEVHNAKTKPREEQFNSTYRVVSVLTVLHQDWLNGKEYKCKVSNKGLPSSIEKTISKAKGQPREPQVYTLPPSQEEMTKNQVSLTCLVKGFYPSDIAVEWESNGQPENNYKTTPPVLDSDGSFFLYSRLTVDKSRWQEGNVFSCSVLHEALHYHITQKSLSLSLGK	–
334 nM	9.2 nM	anti-Abeta hIgG4 antibody, Fc modification T3 (M252Y/Q311I/N434Y) (antibody, part only; not given: anti-Abeta variable domains, not shown: another chain or arm of the molecule) Fc: PAPEFLGGPSVFLFPPKPKDTLYISRTPEVTCVVVDVSQEDPEVQFNWYVDGVEVHNAKTKPREEQFNSTYRVVSVLTVLHIDWLNGKEYKCKVSNKGLPSSIEKTISKAKGQPREPQVYTLPPSQEEMTKNQVSLTCLVKGFYPSDIAVEWESNGQPENNYKTTPPVLDSDGSFFLYSRLTVDKSRWQEGNVFSCSVMHEALHYHYTQKSLSLSLGK	–
230 nM	–	anti-BACE1 hIgG4 antibody, Fc modification Q7 (M252Y/Q311A/N434Y/Y436I) (antibody, part only; not given: anti-BACE1 variable domains, not shown: another chain or arm of the molecule) Fc: PAPEFLGGPSVFLFPPKPKDTLYISRTPEVTCVVVDVSQEDPEVQFNWYVDGVEVHNAKTKPREEQFNSTYRVVSVLTVLHADWLNGKEYKCKVSNKGLPSSIEKTISKAKGQPREPQVYTLPPSQEEMTKNQVSLTCLVKGFYPSDIAVEWESNGQPENNYKTTPPVLDSDGSFFLYSRLTVDKSRWQEGNVFSCSVMHEALHYHITQKSLSLSLGK	–
284 nM	6.5 nM	anti-Abeta hIgG4 antibody, Fc modification Q95 (M252Y/T307Q/Q311A/N434Y) (antibody, part only; not given: anti-Abeta variable domains, not shown: another chain or arm of the molecule) Fc: PAPEFLGGPSVFLFPPKPKDTLYISRTPEVTCVVVDVSQEDPEVQFNWYVDGVEVHNAKTKPREEQFNSTYRVVSVLQVLHADWLNGKEYKCKVSNKGLPSSIEKTISKAKGQPREPQVYTLPPSQEEMTKNQVSLTCLVKGFYPSDIAVEWESNGQPENNYKTTPPVLDSDGSFFLYSRLTVDKSRWQEGNVFSCSVMHEALHYHYTQKSLSLSLGK	Kd [6]: 8.2 nM; Kd [7]: 215 nM
273 nM	7.4 nM	anti-Abeta hIgG4 antibody, Fc modification Q7 (M252Y/Q311A/N434Y/Y436I) (antibody, part only; not given: anti-Abeta variable domains, not shown: another chain or arm of the molecule) Fc: PAPEFLGGPSVFLFPPKPKDTLYISRTPEVTCVVVDVSQEDPEVQFNWYVDGVEVHNAKTKPREEQFNSTYRVVSVLTVLHADWLNGKEYKCKVSNKGLPSSIEKTISKAKGQPREPQVYTLPPSQEEMTKNQVSLTCLVKGFYPSDIAVEWESNGQPENNYKTTPPVLDSDGSFFLYSRLTVDKSRWQEGNVFSCSVMHEALHYHITQKSLSLSLGK	–
406 nM	8.8 nM	anti-Abeta hIgG4 antibody, Fc modification T94 (M252Y/N286E/N434Y) (antibody, part only; not given: anti-Abeta variable domains, not shown: another chain or arm of the molecule) Fc: PAPEFLGGPSVFLFPPKPKDTLYISRTPEVTCVVVDVSQEDPEVQFNWYVDGVEVHEAKTKPREEQFNSTYRVVSVLTVLHQDWLNGKEYKCKVSNKGLPSSIEKTISKAKGQPREPQVYTLPPSQEEMTKNQVSLTCLVKGFYPSDIAVEWESNGQPENNYKTTPPVLDSDGSFFLYSRLTVDKSRWQEGNVFSCSVMHEALHYHYTQKSLSLSLGK	Kd [6]: 10.1 nM; Kd [7]: 369 nM
